Source: PMC9871967, “A hnRNPA2B1 agonist effectively inhibits HBV and SARS-CoV-2 omicron in vivo” (Protein & Cell, 2022)

Target: the molecule itself
Assay: native gel or EMSA; HepG2.2.15 cells treated with PAC5 (10 μmol/L) for the indicated time; cell lysates on native PAGE, hnRNPA2B1-dimerization assay by immunoblot

B1: heterogeneous nuclear ribonucleoprotein A2B1 (natural protein, UniProt P22626 1-353, looked up)
chain: MEKTLETVPLERKKREKEQFRKLFIGGLSFETTEESLRNYYEQWGKLTDCVVMRDPASKRSRGFGFVTFSSMAEVDAAMAARPHSIDGRVVEPKRAVAREESGKPGAHVTVKKLFVGGIKEDTEEHHLRDYFEEYGKIDTIEIITDRQSGKKRGFGFVTFDDHDPVDKIVLQKYHTINGHNAEVRKALSRQEMQEVQSSRSGRGGNFGFGDSRGGGGNFGPGPGSNFRGGSDGYGSGRGFGDGYNGYGGGPGGGNFGGSPGYGGGRGGYGGGGPGYGNQGGGYGGGYDNYGGGNYGSGNYNDFGNYNQQPSNYGPMKSGNFGGSRNMGGPYGGGNYGPGGSGGSGGYGGRSRY
notes: heterogeneous nuclear ribonucleoprotein A2B1, endogenous in human hepatoma cell lines, precipitated and detected with anti-hnRNPA2B1 (Santa Cruz sc-32316); Endogenous protein; also called hnRNPA2B1; source: endogenous, HepG2.2.15, HepAD38 and HepG2 cell lysates
With B1 the “stoichiometry N” value was 2.
